Article PMC2928392 (Pharmacogenetics and Genomics, 2009)

B1: UDP-glucuronosyltransferase 2A2 (UGT2A2) (Homo sapiens) (protein)
chain: MVSIRDFTMPKKFVQMLVFNLTLTEVVLSGNVLIWPTDGSHWLNIKIILEELIQRNHNVTVLASSATLFINSNPDSPVNFEVIPVSYKKSNIDSLIEHMIMLWIDHRPTPLTIWAFYKELGKLLDTFFQINIQLCDGVLKNPKLMARLQKGGFDVLVADPVTICGDLVALKLGIPFMYTLRFSPASTVERHCGKIPAPVSYVPAALSELTDQMTFGERIKNTISYSLQDYIFQSYWGEWNSYYSKILGRPTTLCETMGKAEIWLIRTYWDFEFPRPYLPNFEFVGGLHCKPAKPLPKEMEEFIQSSGKNGVVVFSLGSMVKNLTEEKANLIASALAQIPQKVLWRYKGKKPATLGNNTQLFDWIPQNDLLGHPKTKAFITHGGTNGIYEAIYHGVPMVGVPMFADQPDNIAHMKAKGAAVEVNLNTMTSVDLLSALRTVINEPSYKENAMRLSRIHHDQPVKPLDRAVFWIEFVMRHKGAKHLRVAAHDLTWFQYHSLDVIGFLLVCVTTAIFLVIQCCLFSCQKFGKIGKKKKRE
B2: UDP-glucuronosyltransferase 2A1 (UGT2A1) (Homo sapiens) (protein)
chain: GNVLIWPMEGSHWLNVKIIIDELIKKEHNVTVLVASGALFITPTSNPSLTFEIYKVPFGKERIEGVIKDFVLTWLENRPSPSTIWRFYQEMAKVIKDFHMVSQEICDGVLKNQQLMAKLKKSKFEVLVSDPVFPCGDIVALKLGIPFMYSLRFSPASTVEKHCGKVPYPPSYVPAVLSELTDQMSFTDRIRNFISYHLQDYMFETLWKSWDSYYSKALGGLLLCCPGWSAVADLGSLQPLLPGFKRFSRLSLHCSWDYRLPAGRPTTLCETMGKAEIWLIRTYWDFEFPRPYLPNFEFVGGLHCKPAKPLPKVLWRYKGKKPATLGNNTQLFDWIPQNDLLGHPKTKAFITHGGTNGIYEAIYHGVPMVGVPMFADQPDNIAHMKAKGAAVEVNLNTMTSVDLLSALRTVINEPSYKENAMRLSRIHHDQPVKPLDRAVFWIEFVMRHKGAKHLRVAAHDLTWFQYHSLDVIGFLLVCVTTAIFLVIQCCLFSCQKFGKIGKKKKRE

Assays:
[1] = target: T1, UDP-glucuronosyltransferase 2A3 (UGT2A3) (Homo sapiens, UniProt Q6UWM9); test: glucuronidation rate at […], radiochemical HPLC; assay type: cell-based
T1 sequence (Q6UWM9 24-527): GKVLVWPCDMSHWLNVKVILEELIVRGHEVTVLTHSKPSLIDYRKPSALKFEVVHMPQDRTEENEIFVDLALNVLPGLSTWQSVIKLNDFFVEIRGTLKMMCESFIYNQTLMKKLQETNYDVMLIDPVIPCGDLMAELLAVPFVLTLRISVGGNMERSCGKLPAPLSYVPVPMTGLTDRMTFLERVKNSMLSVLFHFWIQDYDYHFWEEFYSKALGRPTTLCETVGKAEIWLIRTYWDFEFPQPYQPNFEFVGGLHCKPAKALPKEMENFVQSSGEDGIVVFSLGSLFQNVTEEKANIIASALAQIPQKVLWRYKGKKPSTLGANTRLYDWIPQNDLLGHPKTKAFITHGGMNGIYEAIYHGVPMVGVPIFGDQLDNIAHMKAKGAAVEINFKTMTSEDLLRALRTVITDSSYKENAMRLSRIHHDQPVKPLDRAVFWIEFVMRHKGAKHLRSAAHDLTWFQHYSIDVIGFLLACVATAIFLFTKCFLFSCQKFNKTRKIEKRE

glucuronidation kinetics [2] = substrate: Oc1ccc(-c2ccccc2)cc1; test: glucuronidation kinetics; assay type: cell-based, Homo sapiens; conditions: UDP-glucuronic acid; MgCl2 ([…])
glucuronidation kinetics [3] = substrate: O=[N+]([O-])c1ccc(O)cc1; test: glucuronidation kinetics; assay type: cell-based, Homo sapiens; conditions: UDP-glucuronic acid; MgCl2 ([…])
glucuronidation kinetics [4] = substrate: Cc1cc(=O)oc2cc(O)ccc12; test: glucuronidation kinetics; assay type: cell-based, Homo sapiens; conditions: UDP-glucuronic acid; MgCl2 ([…])
[5] = substrate: O=C(O)[C@H]1O[C@H](OP(=O)(O)OP(=O)(O)OC[C@H]2O[C@@H](n3ccc(=O)[nH]c3=O)[C@H](O)[C@@H]2O)[C@H](O)[C@@H](O)[C@@H]1O; test: cells, lysate or membranes; conditions: MgCl2 ([…]) co-substrate

Molecule	glucuronidation rate at 200 μM, radiochemical HPLC (4.9 pmol/min/mg) [1]	Km (glucuronidation kinetics [2]) [µM]	Vmax (glucuronidation kinetics [2]) [pmol/min/mg]	Km (glucuronidation kinetics [3]) [µM]	Vmax (glucuronidation kinetics [3]) [pmol/min/mg]	Km (glucuronidation kinetics [4]) [µM]	Vmax (glucuronidation kinetics [4]) [pmol/min/mg]	Km [5] [µM]	Vmax [5] [pmol/min/mg]
C[C@H](CCC(=O)O)[C@H]1CC[C@H]2[C@@H]3C[C@H](O)[C@@H]4C[C@H](O)CC[C@]4(C)[C@H]3CC[C@]12C [HDCA, hyodeoxycholic acid]	UGT2A3 exhibited glucuronidating activity only towards HDCA								
B1		245	124 ± 2	4469	69 ± 3	2998	39 ± 0.9	55.1	91.4 ± 3
B2				303	141 ± 5			39.5	292 ± 12
